Reference: patent US20220228157A1, “GENE EDITING IN DIVERSE BACTERIA” (priority 2019, published 2022)

Columns and labels:
[1] = biological target: EcSSBΔ9 (EcSSB with a 9-amino-acid C-terminal deletion) (E. coli) (UniProt P0AGE0); assay: cell-based or functional assay
[2] = biological target: L. lactis single-stranded binding protein (LlSSB) (L. lactis) (UniProt Q9CDM9); assay: cell-based or functional assay
[3] = biological target: PaSSB (Pseudomonas aeruginosa single-stranded binding protein) (Pseudomonas aeruginosa) (UniProt P40947); assay: cell-based or functional assay
[4] = biological target: LlSSB C8:EcSSB (L. lactis SSB with its last 8 C-terminal residues replaced by those of EcSSB) (L. lactis) (UniProt Q9CDM9); assay: cell-based or functional assay
[5] = biological target: E. coli single-stranded binding protein (EcSSB) (E. coli) (UniProt P0AGE0); assay: cell-based or functional assay; settings: scale: fold improved over the RecT protein alone
[6] = biological target: LlSSB C7:EcSSB (L. lactis SSB with its last 7 C-terminal residues replaced by those of EcSSB) (L. lactis) (UniProt Q9CDM9); assay: cell-based or functional assay
E. coli [7] = assay: Fifteen cycles of MAGE with pool of 15 oligos, editing efficiency by NGS; format: cell-based, Escherichia coli; settings: 15 separate mutations, one week
Method: E. coli populations expressing either an efficient SSAP (SEQ ID NO: 157), an efficient SSAP/SSB pair (SEQ ID NO: 157/SEQ ID NO: 384), or the widely-used Redβ were taken through fifteen cycles of MAGE and transformed each cycle with a 10 μM pool comprising 15 unique oligos. Editing efficiency at each targeted locus was measured by NGS and averaged (FIG. 3).

E. coli [8] = assay: Editing efficiency by NGS, non-coding mismatch at a non-essential gene; format: cell-based, Escherichia coli; settings: versus Redβ expressed off wild-type codons
Method: Top-performing SSAPs and SSAP/SSB pairs from experiments in E. coli, L. lactis, and M. smegmatis are shown in FIG. 2A, FIG. 2B and FIG. 2C, respectively. Bars in red are the proteins that had previously been reported in the literature. The proteins listed were found after ten rounds of selection for protein variants that enabled the introduction of an oligonucleotide that conferred a genomic edit that provided antibiotic resistance. Unbiased editing efficiency was tested in each case by introducing a non-coding base change at a non-essential gene and measuring the frequency of incorporation via next generation sequencing.
Their recombineering efficiency was tested against Redβ expressed off of its wild-type codons on the same plasmid system used for the SEER selections. […]
The efficiency of each SSAP or SSAP/SSB pair was measured by expressing them off of their host-specific plasmid in the naïve parent strain and running a recombineering cycle with an oligo that confers a 4-nucleotide non-coding mismatch in a non-essential gene. The allele was then amplified by PCR and editing efficiency was measured by next-generation sequencing.
To measure single locus editing, a recombineering cycle was run with an oligo that confers a single base pair non-coding mismatch in a non-essential gene. The allele was then amplified by PCR and editing efficiency was measured by NGS as described above. […]

[9] = tested on: Agrobacterium tumefaciens; assay: Oligo-recombineering efficiency of SSAP/SSB library members; format: cell-based; settings: A. tumefaciens, after two rounds of selection
Method: A library of the most broadly-acting three (3) SSAPs and twenty five (25) SSBs was cloned into an Agrobacterium tumefaciens (A. tumefaciens) vector (75-member library). The library was selected for efficient genome editing, and oligo-recombineering. Efficiency was measured from the two most frequent members of the library after two rounds of selection. Editing efficiency of close to 1% was measured in SSAP SEQ ID NO: 143/SSB SEQ ID NO: 310. […] A. tumefaciens is quite distantly related to E. coli, L. lactis, and M. smegmatis (FIG. 7).

Redβ single-stranded annealing protein (SSAP) from Enterobacteria phage λ (from UniProt P03698 1-261)
genome editing efficiency in L. lactis (fold lower than Redβ with EcSSB) [1]: 44 | genome editing efficiency in L. lactis (fold less than Redβ with EcSSB) [2]: 38.5 | editing efficiency in C. crescentus (fold over Redβ alone) [3]: 15 | editing efficiency in C. crescentus after expression optimization and evasion of mismatch repair (fold higher than Redβ alone) [3]: 112 | editing efficiency in C. crescentus after expression optimization and evasion of mismatch repair (fold over the background level) [3]: 873 | editing rate in L. lactis (fold of Redβ with EcSSB) [4]: 2.6 | editing efficiency in L. lactis, pair against the RecT protein alone [5]: 483 | editing rate in L. lactis (fold of Redβ with EcSSB) [6]: 5.9

B1: SEQ ID NO: 157/SEQ ID NO: 384: efficient SSAP/SSB pair co-expressed in E. coli (protein, listed as Clostridium sordellii)
chain 1: MNQIVKFTDDSGLAVQVTPDDVRRYICENATEKEVGLFLQLCQTQRLNPFVKDAYLVKYGGAPASMITSYQVFNRRACRDANYDGIKSGVVVLRDGDVVHKRGAACYKKAGEELIGGWAEVRFKDGRETAYAEVALDDYSTGKSNWAKMPGVMIEKCAKAAAWRLAFPDTFQGMYAAEEMDQAQQPEQVRAQAEQPVDLQPIRELFKPYCEHFGITPAEGMTAVCGAVGAEGMHSMTEQQARRARAWMEEEMAAPAVEAEYEVVDEGEVF
chain 2: MNHVVLVGRLTKDPELRYIPGTGTAVATFTIAIDRDYAKKDGSRETDFIPVEVMGKSAEFCANYISKGRLVALQGSIRVDNYQNQSGERRTFTKVSARNIQALDSNKNRSDSPYPSQNQSFEPSFEPSFEPTGLDPQGFQAIDDDDIPF
modifications: Collinsella stercoris DSM 13279
notes: efficient SSAP/SSB pair co-expressed in E. coli
Editing efficiency, averaged over targeted loci (E. coli [7]): ~100%

B2: codon-optimized version of Redβ: Redβ expressed from the codon-optimized gene included in Broad SSAP Library (protein, UniProt P03698 1-261, looked up)
Recombination protein bet: MSTALATLAGKLAERVGMDSVDPQELITTLRQTAFKGDASDAQFIALLIVANQYGLNPWTKEIYAFPDKQNGIVPVVGVDGWSRIINENQQFDGMDFEQDNESCTCRIYRKDRNHPICVTEWMDECRREPFKTREGREITGPWQSHPKRMLRHKAMIQCARLAFGFAGIYDKDEAERIVENTAYTAERQPERDITPVNDETMQEINTLLIALDKTWDDDLLPLCSQIFRRDIRASSELTQAEAVKALGFLKQKAAEQKVAA
modifications: expressed from codon-optimized gene
notes: Redβ expressed from the codon-optimized gene included in Broad SSAP Library
Effect of codon usage on editing efficiency (E. coli [8]): significantly decreased efficiency

B3: SSAP SEQ ID NO: 143/SSB SEQ ID NO: 310: co-expressed SSAP/SSB pair (protein, listed as Helicobacter pullorum)
chain 1: MAENEKQALLQEENKSENVVSTVKRTALATNPFSDTDQFNNIFKMAQLISQSDMIPATYKGKPMNCVIALEQANRMGVSPLMVMQNLYVVKGVPSWSGQGCMMIIQGCGKFRDVDYVYSGEKGTDSRSCKVVATRISDGKRIEGTEITMQMVKSEGWISNTKWKNMPEQMLGYRAATFFARMYCPNELNGFATEGEAEDMNHKPQRIEAINVLGDTAHE
chain 2: MFNKVILVGNLTRDVELRYLPSGAALARLNLATNRRYKKQDGTQAEEVCFIDVNLFGRTAEVANQYLKKGSQVLIEGRLVLESWTDNTGAKRTKHSITAESMQMLGQRQSTQEENHDYGAGDYNNYQEYEKPAYTASAAPKAQPVQKEPELPVIDINDDEIPF
modifications: Clostridium sp FS41
notes: co-expressed SSAP/SSB pair
Editing efficiency [9]: ~1%
